Test results published in the domain aggregation screens of Martell et al. (2025).

Test: soluble fraction after stress (log2 fold change); higher = more stays soluble; pooled small domains, quantitative proteomics
Details: stress: pH 4
Outline: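 Custom libraries of small protein domains were pooled and exposed to pH 4. High-throughput quantitative proteomics then measured the log2 fold change in the amount of each domain still soluble, with higher values meaning more stayed soluble. This soluble-fraction fold change stands for aggregation propensity.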

| Sequence | soluble fraction (log2) |
| --- | --- |
| HMIFDPTTLPEKQLLVYGIISSHPGLNAKQISEMLTLKKSSIETAIKGLRKKEIIEYEGTTRNGG | -0.17 |
| HMIFEEDILKEFRGSLIFITHDRRFLDNIATRIIELDRGKLLSFPGNFSAYKKAKNEQLANEAVENA | -1.17 |
| HMIFEETVFKDIAFGPKNMGLSEAEIKRRVYETAENIGLSQELMERSPFELSGGQKRRVAIAGVMAMEP | -0.878 |
| HMIFELDSDRASAGNTIGKLVSKWNNTEVASVQFVSGDDTSNKDNASIYLNTRSGGSGNLVRLRITK | 0.108 |
| HMIFRPALITDLDAVERHYTELLTREAETGRSSTNWSLGVYPTRQTATAAQAAGTLWVLEREGQVVASVI | -0.552 |
| HMIFTPNGDRVNDVFEIEMGVKLEFQIIILNQQNQTVFKSADPDFKWDGTMLNGEPAPSGTYLYYFSAKD | 0.22 |
| HMIGERIKRARAAAGLSMQALGKQVGISANMVKKYEHDQSMPSSGVLLKLATALSVRTEYFFRPA | -0.0616 |
| HMIGGASVFKQFLPLADKMLLTLIHSEFEGDTYFPVFSEKEWLLQESSSLLSATGYQLSFQTYIR | 0.013 |
| HMIGGEDEILKVVLEVLEEKPEAIEQYKNGRTNIVDFLVGQVMKKTRGQANPATTREFMIREIEK | -0.999 |
| HMIGKDLLGYEVFSESGDLVGILKDVMWLPHSDVYVITNGGKELLIPVIPEVVKGINHEQGVIVISPM | -1.04 |
| HMIGPYAAAKLMTNKDFVKWLSGGVEKSVFNPNSFGQHIRRLVQISEVNPDIRDEINAVVQGLTQ | -0.00821 |
| HMIGRIKGQLIEKKSDSVVIDVHGIGYVVYVTEKTARSLTLGDQSRDISLYSELLVKEDLLQLVGFI | -0.0095 |
| HMIGRRLKVARASAGLSLRELAARMDGVVTPQAIGKYERNEDMPGSRALMALASALGVSEGYLLSD | -0.0156 |
| HMIHDSAESVVFPFGKYKGYTLAHVIREHPHYTYWIRDNADFSPLWREAVSLALQNRDIGHLNLPHVK | -0.606 |
| HMIHMNMGQKINQLRLQKGFTLEELGNLVGVGKSTVRKWENGMIANMKRDKILLVAEALDTSPAYLMGWD | -0.462 |
| HMIIENIVVEIKGEVYNPGLYILEQGSRINDLIELSGGFTKDANGTDLNLAKVLSDGEVIIVSKKG | -1.35 |
| HMIIIMKPNASEEAVRKVTHIIESKGLQVHLSKGSQVTIVGVVGDKTRLQGSNIEISEGVDKVVAVT | -0.0906 |
| HMIILDASASRAIGNGTIEETKWDFGNGESSTNRGGPIVERQIYANQAAYILKLSMKTNDGQLFTKEIQLL | -0.0529 |
| HMIINKFERRKEIQIQFNNQERIKFKDFFLNLSKENIIVSFLILLELVRESLIDFSGTNENDIEFFIK | -0.834 |
| HMIITTPYKVTASAINIRSGRGTSYSIIGTVSKGQTVDVYNNSLSKGWVKVKFSGSVGYAYAKYLEK | -0.116 |
| HMIIVMSANANAREISEVIARIRAMGYDVHLSHGKERTIIGVIGRGTPIDREQLSLMSGVQQVMPV | -0.109 |
| HMIKIEDILNVESVELSDSEYKKFLNGILINVKNLENGWAKVYSGNEFKGFGIVDKNLLKRKIVID | -0.407 |
| HMIKIEDYTNKDYNKVEASLEVKGLVVNIEYKAVDDKAKYKGKEDLIIDQSVKKDATLVKGDTIILYLPK | 0.0435 |
| HMIKISDYLSEEDLNFIKEMEKIYPYFDFDSEGNLILTKSIDELKDKYGFDEAFVSRLDTVLNSR | -0.243 |
| HMIKITLGWVISVRRHDLGYTQHKMARAVGISDLTVSRIESDDGITPDNNTLRKIAEYLKIDYNSLLTLK | -0.175 |
| HMIKLIKKDTNISELKMSKMPWDVMLYGKPYQVVSIKGYVHTIGGRRGENDLWMYPRDESPTYENLIEFQ | 0.279 |

| Sequence | soluble fraction (log2) |
| --- | --- |
| HMIKNKDRIQYTLAHRKAFRKIEKELLGYNTFRSLFHDLDKVFLYPFFDYKKVHNFHRNHAHH | 0.0879 |
| HMIKRETNDNPVDPASLSLGDRVKILTLNQNGEIISLPDEKGLLQVQVGIMKIGVNVSDIMLI | -0.413 |
| HMIKRITDEQHPVDVDRLLVVTFTNAAASEMRERIGDAIEAALEKDPYNQHLQRQLTLVHNAQITTIDS | 0.00503 |
| HMIKSEERIQNIKEYILEFQFTYHRTPTMAQIAEAVGTVKSNVYKYLSEMEERGILTRNKREIEINDTIQ | -0.588 |
| HMIKSMTGYGSAKGTVEGIEVSVELKSVNNKFLDTSIRLPRSFLFAEETIKQAVSSHISRGKVDVFVSVDS | -0.0706 |
| HMIKYTIEELGELTGFTRRTIRYYVQEGLIDPPAGRGRGGFYYDSHVQQLLRIKSFQEKGIGITAMVSLM | -1.71 |
| HMILEEIIGKNIARYREAAGLTQATLAEKIGISTAFVSRVERGQKKMKVETLYATAKVLNVSVDALLS | 0.0651 |
| HMILKNVPSNLVNQRLDKVATVLFQTYSRTQIKKWILEGRLLVNGEISNPKDLVNENDEIEINPI | 0.3 |
| HMILKQTHIVQELTGPIRLQEYGVGIFQQISTKSALKKALKKNQITVDGVVGSTATFIKGGEIIIYHVTE | -1.68 |
| HMILNDRSELLDVVKRVIAANPASVADYRKGKKKVLGFLVGQAMKETKGQADPRILNELFLQELGEN | 0.0701 |
| HMILNNAKINTELNSLAEFTQRSLDSNTSEIGFYDYKKISYIASFATMKTTNWNVIIRAPINEFMGTVN | 0.203 |
| HMILQTLSERVTETLRDWILHGHFKPGDKIEEVPIAERMGVSRTPVRAAFATLTNEGLIDHQPNRGYQVRV | 0.201 |
| HMILSTNFFRHIVPKEYQTSYGTMKKWLTDHNVIGTNSIPQGIGYRIPTQGLSSTFSFKVVDVLPDR | ≥ 0.43 |
| HMIMDQTILRKQRELTDRLNRYRNEYYNHNKPSVSDEVYDRLFDELQSLEKETGVQMANSPTTTVG | 0.0972 |
| HMIMGTITKRTNPSGAIVYRAQIRIKKAGYPDFSESRTFSKKAMAVEWLKLREAELEMHPELLFR | 0.0366 |
| HMIMHLNQIIRNKRLAAGLTQEALAQKVGVTAPAVSKWEKGISYPDITLLPILARNLNTDVNTLLDFSA | 0.0644 |
| HMIMNLNVLANNVRRLRTAQRLSQSALASKAGLSVPAIKNLENARNEPRVNTVQVIAHALEVRLQDLFAPT | 0.18 |
| HMIMTEKEKKLLNRYIMHDTIHKLYHEQNKSMRWIADNLGINFRTVQKYLDMDSGEFQKYSESISNR | -0.141 |
| HMIMTIYEYIARNNPTGAKRVIESFGYVVTQPKKMGDNLRMLVAQEGEPALKAVVDLHPDKDLILEV | -1.93 |
| HMINAQETEIYRFLIEKANRLYSMVLGLKREELMTATRQFEEEVKHSSIHHLPKIYQAFSSYLELLERG | -0.207 |
| HMINDKLQHLFSLFPAMDKELKRKGITRQILWVEYKKQYPLGFGRSQFNSYFAAWKAQVSPS | 0.204 |
| HMINFLSKREIEVLRLVADGLSNRDVGQYLFISESTVKRHLSTIYEKLAVKSRTQAIDHARRADL | -1.39 |
| HMINGTITFYDDTTLKGELSSLDTKYLFIIPNGLVMPEKIAVSDIEYFNLDNGITLIQDGISKQTY | -1.11 |
| HMINLGDLEVGHTYHTRMPILQNDLKYSHKSPIQIVAEHSIVYGVRVYIGFLNEHRVLVTADDV | -0.269 |
| HMINLRTALNNAGVMQKELSDILYMTPQDVNRRFSGVTKWKPLEKRAIMQFLEDRGFEYTEEQLF | -0.883 |
| HMINLVPFELKFITAQVLDDIIKKIGINADTIILDINPKKIWVYAGEQELSDIQNIVKNVDVEDNI | -2.17 |

| Sequence | soluble fraction (log2) |
| --- | --- |
| HMINVLTPKQIEATTIAVKYGYYENPRTVSMRELSEISGIARSTLQEHLSKAEAALMILAAKSQL | -0.0956 |
| HMINVVDEVIKHLETNIISGFWAPGQKIDSEATLSKQLNVSRASIHTAIQQLIATGVLESFQGKGTFVRS | -0.226 |
| HMIPDGKWKEDPISDGQKNFINSLIEQAIDAGQDELGAEAKKYLASGEATKGNASAMIDKLKSAL | 0.398 |
| HMIPDMSLELAMSEQTSKGDLYGDLPNDKLALMFNAISKKVPHTDDHKRKMVAIQTILESRAS | 0.0127 |
| HMIPEGKWMEDPISEGQIKFIETLIKQAIDSGQDALGAEAKQYLSSGEATKGNASSMIDKLKDAL | -0.479 |
| HMIPEILNGYTKWGDDEPFEDHAGPFYMKMMPSTGRHLSAFIPEQRHMNGGGFLHGGMLMSFADYALFVI | -0.491 |
| HMIPEKEISYMMPDGFMPKELKIIHITESGRKQIYSAAHKPLDLVNVKAPFVPNTKVQIYINDVPIEELKI | -0.739 |
| HMIPKDKQAWIALTYIYGVGRTTSMEILKKAQVGEEIRMKDLTEEEVTRIRNIIDKEYEVEGDLRRN | -0.762 |
| HMIPNEKEAARWDALTAEHTAKLNALEGDALDKVGSHEDVSIKRAGVGDAAFREKILSRTHPDDLERALST | 0.3 |
| HMIQHFARKRRQLELAVQRLSGRMAETNGQVTADMQRLIQQVKALVAELSHVFSRAYLRRVLGGVALVIGS | -0.145 |
| HMIQLTDAEFNELVTYIKKNYGINLIKKRLLIEARMYSVLAKHGFTSFTEYINLIKRDPAELNTMLNKLTT | 0.126 |
| HMIQMRVKVPKNIAGGSLMGAHHFVKSALARTNPGGSTSNYKIQATDGTPLTLGDLTARQYDEVLIISG | -0.617 |
| HMIQTKKVTFTVEPTVNFEKINISGIEFKINSGSSITAIYEKNSHNFDEVLDFLKQKGVKILDIVTED | -0.824 |
| HMIRILIVDDSAFMRKLLSDVFEEDKNFVVVDTARNGQDAVEKVKRLKPDLVTMDVEMPVMDGLTAVEIIM | -1.12 |
| HMIRSNLAEQAYAQLKALIHDFQLLPGDRFSENEMGTRLGVSRTPVREALFRLRNEGFLEVESKAGWYVK | -1.73 |
| HMISAADLQTYLKGMDYPAGREDLVAHAQRNNAPESVITILQGFSDRTYRSAAEVSEEFGRE | -0.371 |
| HMISADSSKVDTLVQVYSNMKPIQAAQVFEKMDEDLVIEILSRMKKKNAADILNLIKTEKAQVFAEKYA | -0.0774 |
| HMISAEPVGEDLFKVAFPFLGGSTVFEKTIEQFIEEHPSKRIDHIYTVPNPLRLKKADALIFYIITEEK | -1.12 |
| HMISASDLQTYLKGMDYPARKEDLIVHAQRNNAPESVIAAIRQFSDRTYQSAADVSEEFGKI | -0.468 |
| HMISDEELLVSTKKEIMSLATVLTKTDKKDDAIAIMKEYDPAANPNRIKDVNKAKELLERLQKLG | -0.104 |
| HMISDISEIEAIIVEVLKVFPNQLQEYLDGKEKILSFFVGQVMQRTKGRANPSLVNEILKEKIKN | -0.417 |
| HMISEAEGTILQLLKEADGTLPFTYKSDADEIKKVFGMSKKNFKRTLTELIEAKKIQLLDDAIVL | -0.0222 |
| HMISEKEIKIIEDILARWNGKLTWDDFTSKVAKKLNLPSLSKFTLMGYPEIKQAFLTRKQTLK | -0.382 |
| HMISENFVEAKILLTEDNRPKSLEILKDIIRQHDKVYSPLSLFLILDEDLEENKEIILEYFDLVLS | -1.38 |
